Changes are numbered by the printed parent chain.
How the values were obtained:
[1] = target: T1, LexA (Salmonella) (Salmonella enterica serotype Agona strain 47SA97) (UniProt B5F1Q6); test: EMSA; details: EMSA: 40 ng DNA probe, 0-600 ng LexA, binding buffer E (composition not stated; Thermo E33075 EMSA kit), 10 uL, 20 min on ice; 6% native Tris-glycine PAGE …
T1 sequence: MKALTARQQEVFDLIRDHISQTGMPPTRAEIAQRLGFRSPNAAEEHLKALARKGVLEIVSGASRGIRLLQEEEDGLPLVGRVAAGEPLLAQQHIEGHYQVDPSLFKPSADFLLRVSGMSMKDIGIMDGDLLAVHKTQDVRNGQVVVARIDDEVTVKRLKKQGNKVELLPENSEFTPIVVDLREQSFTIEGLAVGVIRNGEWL

[2] = target: T2, LexA (E. coli) (Escherichia coli MG1655) (UniProt P0A7C2); test: EMSA; details: EMSA: 40 ng DNA probe, 0-600 ng LexA, binding buffer E (composition not stated; Thermo E33075 EMSA kit), 10 uL, 20 min on ice; 6% native Tris-glycine PAGE …
T2 sequence: T1 sequence with L56I, D74E, S108N, T175K, E183Q, E200D

Row | Sequence | binding [1] | binding [2]
1 | ACACACCTGATTTATTCACTGATTAACTTTGTCATCAATCATAAATACCATGACTTTTTGATAATGCAACGCCAAATACTGTGTTTTTTTACAGTATCATTTTATGGTGCTATGAAGATTTGCATTTCTGAACGATAATCTATAATCGGTTACATATTAATCAGGAGGCGT (double strand) [PsgaDC probe] | binds | binds
2 | ACACACCTGATTTATTCACTGATTAACTTTGTCATCAATCATAAATACCATGACTTTTTGATAATGCAACGCCAAATAAGTTGTTTTTTTACAGTATCATTTTATGGTGCTATGAAGATTTGCATTTCTGAACGATAATCTATAATCGGTTACATATTAATCAGGAGGCGT (double strand) [PsgaDC* probe] | no binding | no binding
3 | AGTTGTTCCGCAGTAGCCATTATTCAATCTCCATAAGACGGGGCAACTTTACCAATTTTATACAATAAAGTCTGTGTAGTATGACAGGGTTTAAGCACTTAATCCCCTCTAGAATTTTGTACACTCACCACCCCTACATGATTATAAATAGTCGTTCTAGATACACCATATCGCCTAGCAACA (double strand) [PsgiAT probe] | no binding | no binding
